Among the data in the RNAGym collection of RNA variant scans (doi:10.7554/elife.80360) are self-cleavage values, retold here.

B1: Hairpin Ribozyme (parent)
chain: GUCCUCUUUCACGUGCGCGUGAAAGAGAGAAGUGAACCAGAGAAACACACGUUGUGGUAUAUUACCUGGUA

Variants of B1 are the subject of this data set. Description: self-cleavage, relative activity (ratio to wild type); higher = more cleavage; co-transcriptional.
GUCCUCUUUCACGUGCGCGUGAAAGAGAGAAGUGAACCAGAGAAACACACGUUCUGGUAUAAUACCUGGUA: the self-cleavage stood at 0.186.

As for GUCCUCUUUCACGUGCGCGUGAAAGAGAGAAGUGAACCAGAGAAACACACGUUCUGGUAUACUACCUGGUA, the self-cleavage was found to be 0.108.

Regarding GUCCUCUUUCACGUGCGCGUGAAAGAGAGAAGUGAACCAGAGAAACACACGUUUUGGUAUAUUGCCUGGUA, the self-cleavage is 0.4.

Take GUCCUCUUUCACGUGCGCGUGAAAGAGAGAAGUGAACCAGAGAAACACACGUUUUGGUAUAUUCCCUGGUA: the self-cleavage turned out to be 0.128.

As to GUCCUCUUUCACGUGCGCGUGAAAGAGAGAAGUGAACCAGAGAAACACACGUUCUGGUCUAUUACCUGGUA, the self-cleavage turned out to be 0.195.

Take GUCCUCUUUCACGUGCGCGUGAAAGAGAGAAGUGAACCAGAGAAACACACGUCGUGGUAUAGUACCUGGUA: the self-cleavage was found to be 0.122.

Take GUCCUCUUUCACGUGCGCGUGAAAGAGAGAAGUGAACCAGAGAAACACACGUCGUGGUAUAUUACCUGGAA: the self-cleavage was determined as 1.09.

With GUCCUCUUUCACGUGCGCGUGAAAGAGAGAAGUGAACCAGAGAAACACACGUUCUGGUAUAUUACCUAGUA, the self-cleavage stood at 0.187.

Regarding GUCCUCUUUCACGUGCGCGUGAAAGAGAGAAGUGAACCAGAGAAACACACGUCGUGGUAAAUUACCUGGUA, the self-cleavage stood at 0.635.

Regarding GUCCUCUUUCACGUGCGCGUGAAAGAGAGAAGUGAACCAGAGAAACACACGUCGUGGUAGAUUACCUGGUA, the self-cleavage is 0.557.

With GUCCUCUUUCACGUGCGCGUGAAAGAGAGAAGUGAACCAGAGAAACACACGUGGUGGUGUAUUACCUGGUA, the self-cleavage worked out at 0.114.

Regarding GUCCUCUUUCACGUGCGCGUGAAAGAGAGAAGUGAACCAGAGAAACACACGUGGUGGUCUAUUACCUGGUA, the self-cleavage was found to be 0.166.

Consider GUCCUCUUUCACGUGCGCGUGAAAGAGAGAAGUGAACCAGAGAAACACACGUGGUGAUAUAUUACCUGGUA, for which the self-cleavage is 0.178.

Regarding GUCCUCUUUCACGUGCGCGUGAAAGAGAGAAGUGAACCAGAGAAACACACGUGGUGUUAUAUUACCUGGUA, the self-cleavage was 0.164.

As for GUCCUCUUUCACGUGCGCGUGAAAGAGAGAAGUGAACCAGAGAAACACACGUUUUGGUAUAUUACCUGGUA, the self-cleavage stood at 0.626.

Consider GUCCUCUUUCACGUGCGCGUGAAAGAGAGAAGUGAACCAGAGAAACACACGUUCUGGUAUAUUACCUGGUA, for which the self-cleavage came to 0.433.

For GUCCUCUUUCACGUGCGCGUGAAAGAGAGAAGUGAACCAGAGAAACACACGUUAUGGUAUAUUACCUGGUA, the self-cleavage was determined as 0.583.

As for GUCCUCUUUCACGUGCGCGUGAAAGAGAGAAGUGAACCAGAGAAACACACGUUAUGGAAUAUUACCUGGUA, the self-cleavage stood at 0.453.

As for GUCCUCUUUCACGUGCGCGUGAAAGAGAGAAGUGAACCAGAGAAACACACGUUCUGCUAUAUUACCUGGUA, the self-cleavage was 0.155.

With GUCCUCUUUCACGUGCGCGUGAAAGAGAGAAGUGAACCAGAGAAACACACGUUCUGUUAUAUUACCUGGUA, the self-cleavage was found to be 0.217.

Consider GUCCUCUUUCACGUGCGCGUGAAAGAGAGAAGUGAACCAGAGAAACACACGUGGCGGUAUAUUACCUGGUA, for which the self-cleavage is 0.369.

On to GUCCUCUUUCACGUGCGCGUGAAAGAGAGAAGUGAACCAGAGAAACACACGUGGAGGUAUAUUACCUGGUA, for which the self-cleavage came out at 0.269.

Consider GUCCUCUUUCACGUGCGCGUGAAAGAGAGAAGUGAACCAGAGAAACACACGUUCUGGUAGAUUACCUGGUA, for which the self-cleavage was found to be 0.27.

GUCCUCUUUCACGUGCGCGUGAAAGAGAGAAGUGAACCAGAGAAACACACGUUCUUGUAUAUUACCUGGUA: the self-cleavage amounted to 0.166.

Consider GUCCUCUUUCACGUGCGCGUGAAAGAGAGAAGUGAACCAGAGAAACACACGUUCUAGUAUAUUACCUGGUA, for which the self-cleavage was determined as 0.116.

As to GUCCUCUUUCACGUGCGCGUGAAAGAGAGAAGUGAACCAGAGAAACACACGUGCUGGUAUAUUACCUGGUA, the self-cleavage is 0.551.

As to GUCCUCUUUCACGUGCGCGUGAAAGAGAGAAGUGAACCAGAGAAACACACGUGUUGGUAUAUUACCUGGUA, the self-cleavage is 0.49.

GUCCUCUUUCACGUGCGCGUGAAAGAGAGAAGUGAACCAGAGAAACACACGUUCUGGUAUAUUACCUGAUA: the self-cleavage came out at 0.0998.

For GUCCUCUUUCACGUGCGCGUGAAAGAGAGAAGUGAACCAGAGAAACACACGUUAUGGUAUAUUAACUGGUA, the self-cleavage was found to be 0.497.

Consider GUCCUCUUUCACGUGCGCGUGAAAGAGAGAAGUGAACCAGAGAAACACACGUUAUGGUAUAUUAGCUGGUA, for which the self-cleavage stood at 0.107.

Consider GUCCUCUUUCACGUGCGCGUGAAAGAGAGAAGUGAACCAGAGAAACACACGUUAUGAUAUAUUACCUGGUA, for which the self-cleavage was 0.182.

Consider GUCCUCUUUCACGUGCGCGUGAAAGAGAGAAGUGAACCAGAGAAACACACGUUAUGUUAUAUUACCUGGUA, for which the self-cleavage was found to be 0.27.

As to GUCCUCUUUCACGUGCGCGUGAAAGAGAGAAGUGAACCAGAGAAACACACGUUAUGGUGUAUUACCUGGUA, the self-cleavage worked out at 0.17.

Consider GUCCUCUUUCACGUGCGCGUGAAAGAGAGAAGUGAACCAGAGAAACACACGUUAUGGUUUAUUACCUGGUA, for which the self-cleavage amounted to 0.148.

GUCCUCUUUCACGUGCGCGUGAAAGAGAGAAGUGAACCAGAGAAACACACGUUUCGGUAUAUUACCUGGUA: the self-cleavage stood at 0.18.

Take GUCCUCUUUCACGUGCGCGUGAAAGAGAGAAGUGAACCAGAGAAACACACGUUUUGGUCUAUUACCUGGUA: the self-cleavage turned out to be 0.0613.

In the case of GUCCUCUUUCACGUGCGCGUGAAAGAGAGAAGUGAACCAGAGAAACACACGUUAUGGUAGAUUACCUGGUA, the self-cleavage was determined as 0.204.

For GUCCUCUUUCACGUGCGCGUGAAAGAGAGAAGUGAACCAGAGAAACACACGUUCUGGUAUAUUUCCUGGUA, the self-cleavage was found to be 0.155.
